Residue numbers refer to the chain shown, from its start. Where two headings read alike, the source gives them in different places. Values belong to the molecule of their own block, whether it stands above or below them.
What was measured:
[1] = target: T1, canine OX40L, full length membrane form, expressed on HEK293 cells (canine); experiment: flow cytometry, OX40L HEK minus WT HEK
T1 sequence: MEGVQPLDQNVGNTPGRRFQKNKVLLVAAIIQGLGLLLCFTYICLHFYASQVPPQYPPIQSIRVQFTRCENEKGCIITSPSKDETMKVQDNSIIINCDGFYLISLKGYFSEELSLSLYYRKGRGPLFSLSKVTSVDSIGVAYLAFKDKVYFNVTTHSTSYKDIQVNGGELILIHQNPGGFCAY

[2] = target: T1, canine OX40L, full length membrane form, expressed on HEK293 cells (canine); experiment: flow cytometry
[3] = target: T1, canine OX40L, full length membrane form, expressed on HEK293 cells (canine); experiment: cell-based or functional assay
[4] = target: T2, recombinant canine OX40L ECD-TNCc-HIS protein (canine); experiment: SPR KD1, bivalent analyte model
T2 construct: also called Trimeric OX40L probe (HIS tag); trimeric canine OX40L
T2 chain: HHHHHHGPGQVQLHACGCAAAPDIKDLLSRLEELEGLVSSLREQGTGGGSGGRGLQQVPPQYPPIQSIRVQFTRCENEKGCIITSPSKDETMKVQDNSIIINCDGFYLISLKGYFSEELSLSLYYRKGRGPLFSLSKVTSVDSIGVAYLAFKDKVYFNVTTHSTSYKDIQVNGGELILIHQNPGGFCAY
Summary of the method: (§1)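 Purified antigen amine-coupled at low density to a CM5 chip; candidate antibodies injected as analyte over a concentration range. Kinetic curves fitted with a bivalent analyte model to give functional affinity and dissociation rates.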

[5] = target: T3, canine OX40L, full length membrane form, expressed on HEK293 cells (canine); experiment: flow cytometry
T3 construct: also called OX40L expressing HEK; HEK OX40L cells
T3 chain: T1 sequence
Summary of the method: (§2)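 CHO supernatants at 1, 5 or 10 μg/ml in PBS/3% FBS incubated 30′ on ice with cells surface-expressing canine OX40L. Bound antibody detected with fluorescent anti-canine Fc secondary (1:1000, 30 min, dark) and measured by flow cytometry, with parental WT HEK signal subtracted where stated.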

[6] = target: T3, canine OX40L, full length membrane …; experiment: cell-based or functional assay
[7] = target: T2, recombinant canine OX40L ECD-TNCc-HIS …; experiment: SPR Koff (kd1)
Summary of the method: as §1

[8] = target: T2, recombinant canine OX40L ECD-TNCc-HIS …; experiment: SPR Koff (kd2)
Summary of the method: as §1

[9] = target: T3, canine OX40L, full length membrane …; experiment: flow cytometry, OX40L HEK minus WT HEK
Summary of the method: as §2

B3: PMX043 (antibody)
heavy: EVQLVESGGDLVKPEGSLRLSCVVSGFTFSSYDMSWVRQAPGKGLQWVAYITNDGRYTSYTDAVKGRFTISRDNAKNTLYLQMNSLRTEDTAIYYCAKHGSSWSRGRFAMDYWGQGTSLFVSSASTTAPSVFPLAPSCGSTSGSTVALACLVSGYFPEPVTVSWNSGSLTSGVHTFPSVLQSSGLYSLSSMVTVPSSRWPSETFTCNVAHPASKTKVDKPVPKRENGRVPRPPDCPKCPAPESLGGPSVFIFPPKPKDTLLIARTPEVTCVVVDLGREDPEVQISWFVDGKQMQTAKTQPREEQFNGTYRVVSVLPIGHQDWLKGKQFTCKVNHIGLPSPIERTISKARGQAHQPSVYVLPPSREELSKNTVSLTCLIKDFFPPDIDVEWQSNGQQEPESKYRTTPPQLDEDGSYFLYSKLSVDKSRWQRGDTFICAVMHEALHNHYTQKSLSHSPGK
VL: SYVLTQLPSKNVTLNQPAHITCGGDSIGTKSVHWYQQKLGQAPVLIIFYDSSRPTGIPERFSGANSGNTATLTISGALAEDEADYYCQVWDSNASVFGGGTHLTVL
notes: also called PMX43
Kd [4]: 17 nM | GEO mean OX40L expressing HEK [5]: 1.28e+06 | % Signal Inhibition Average [6]: 80.8% | % Signal Inhibition Rep1 [6]: 69.2% | % Signal Inhibition Rep2 [6]: 77.3% | % Signal Inhibition Rep3 [6]: 96.1% | koff [7]: 0.00249 s⁻¹ | koff [8]: 0.0022 s⁻¹ | GEO mean difference [9]: 1.25e+06

B4: PMX044 (antibody)
heavy: EVQLVESGGDPVKPEGSQRLSCVVSGFTFSSYDMSWVRQAPGKGLQWVAYITSDGRSTSYTDAVKGRFTISRDNARNTLFLQMNSLRTEDTAVYYCARHSSSWSRGRFGMDYWGHGTSLFVSSASTTAPSVFPLAPSCGSTSGSTVALACLVSGYFPEPVTVSWNSGSLTSGVHTFPSVLQSSGLYSLSSMVTVPSSRWPSETFTCNVAHPASKTKVDKPVPKRENGRVPRPPDCPKCPAPESLGGPSVFIFPPKPKDTLLIARTPEVTCVVVDLGREDPEVQISWFVDGKQMQTAKTQPREEQFNGTYRVVSVLPIGHQDWLKGKQFTCKVNHIGLPSPIERTISKARGQAHQPSVYVLPPSREELSKNTVSLTCLIKDFFPPDIDVEWQSNGQQEPESKYRTTPPQLDEDGSYFLYSKLSVDKSRWQRGDTFICAVMHEALHNHYTQKSLSHSPGK
VL: B3 VL with N15K, S26N, T29S, F48Y, N93S, S95G
notes: also called PMX44
Kd [4]: 8.23 nM | GEO mean OX40L expressing HEK [5]: 1.53e+06 | % Signal Inhibition Average [6]: 75.1% | % Signal Inhibition Rep1 [6]: 75.7% | % Signal Inhibition Rep2 [6]: 66% | % Signal Inhibition Rep3 [6]: 83.6% | koff [7]: 0.000171 s⁻¹ | koff [8]: 0.0598 s⁻¹ | GEO mean difference [9]: 1.5e+06

B5: PMX046 (antibody)
heavy: B4 heavy with P11L, Q18L, S25A, S30N, S57F, R76K, F80Y, N84S, S104Y, Y112F
VL: B3 VL with N15K, S26N, T29S, V44I, F48Y, N93S
notes: also called PMX46
Kd [4]: 40.4 nM | GEO mean OX40L expressing HEK [5]: 1.25e+06 | % Signal Inhibition Average [6]: 84.8% | % Signal Inhibition Rep1 [6]: 84.8% | % Signal Inhibition Rep2 [6]: 69.5% | % Signal Inhibition Rep3 [6]: 100% | koff [7]: 0.00101 s⁻¹ | koff [8]: 2.02e-05 s⁻¹ | GEO mean difference [9]: 1.22e+06

B6: PMX031 (antibody)
heavy: EVQLVESGGDLVKPGGSLRLSCVASGFTFSNYHMNWVRQAPGKGLQWVAYVVSGGTTTTYADAVKGRFTISRDNAKNTLYLQMNSLRAEDTAVYYCAKGTSTWGVPMDYWGHGTSLFVSSASTTAPSVFPLAPSCGSTSGSTVALACLVSGYFPEPVTVSWNSGSLTSGVHTFPSVLQSSGLYSLSSMVTVPSSRWPSETFTCNVAHPASKTKVDKPVPKRENGRVPRPPDCPKCPAPESLGGPSVFIFPPKPKDTLLIARTPEVTCVVVDLGREDPEVQISWFVDGKQMQTAKTQPREEQFNGTYRVVSVLPIGHQDWLKGKQFTCKVNHIGLPSPIERTISKARGQAHQPSVYVLPPSREELSKNTVSLTCLIKDFFPPDIDVEWQSNGQQEPESKYRTTPPQLDEDGSYFLYSKLSVDKSRWQRGDTFICAVMHEALHNHYTQKSLSHSPGK
VL: SYVLTQLPSVSVTLRQTARITCGGDSIRSKNVYWYQKKLGQAPVLIIYDDSSRPSGIPERFSGANSGNTATLTISGALAEDEADYYCQVWDSSTSVFGGGTHLTVL
notes: also called PMX31
Kd [4]: 154 nM | GEO mean OX40L expressing HEK [5]: 1.55e+06 | % Signal Inhibition Average [6]: 78.4% | % Signal Inhibition Rep1 [6]: 83.5% | % Signal Inhibition Rep2 [6]: 89.1% | % Signal Inhibition Rep3 [6]: 62.7% | koff [7]: 0.0124 s⁻¹ | koff [8]: 0.000606 s⁻¹ | GEO mean difference [9]: 1.51e+06

B7: PMX293 (antibody, V domains shown)
VH: EVRLLESGGDLVKPAGSLRLSCAVSGFTFSTYDMSWVRQAPGKGLQWVAYITYDGRTTSYTDTVKGRFTVSRDNAKNMLYLKMNSLRSEDAAVYYCAKAHRGWFFDHWGQGTLVTVSS
VL: B6 VL with R28G, K37Q, S51T, N68T, S95G
Kd [4]: 1 nM | GEO mean OX40L expressing HEK [5]: 602000 | % Signal Inhibition Average [6]: 73.7% | % Signal Inhibition Rep1 [6]: 81.6% | % Signal Inhibition Rep2 [6]: 77.5% | % Signal Inhibition Rep3 [6]: 62.1% | koff [7]: 0.000387 s⁻¹ | koff [8]: 145 s⁻¹ | GEO mean difference [9]: 598000

B9: PMX035 (antibody, V domains shown)
VH: EVQLVESGGDLVKPGGSLRLSCVASGFTFSNFEMYWVRQAPGKGLEWVARIYKSGSTTYHSERVKGRFTISKDSATNMAFLQMNSLRAEDTAVYYCTSASSTGWRFDYWGQGTLVTVSS
VL: B6 VL with R28G, S29R, Y33C, Y35F, K37Q, S51N, S95G, V96I
notes: also called PMX35
Kd [4]: 269 nM | GEO mean OX40L expressing HEK [5]: 1.41e+06 | % Signal Inhibition Average [6]: 73.5% | % Signal Inhibition Rep1 [6]: 85.3% | % Signal Inhibition Rep2 [6]: 67.4% | % Signal Inhibition Rep3 [6]: 67.8% | koff [7]: 0.0311 s⁻¹ | koff [8]: 0.000498 s⁻¹ | GEO mean difference [9]: 1.38e+06

Now from value to molecule:

GEO mean difference [1]: -4380 | GEO mean OX40L expressing HEK [2]: 19600
Molecule: neg CTR

GEO mean difference [1]: 4100 | GEO mean OX40L expressing HEK [2]: 7760 | % Signal Inhibition Average [3]: -17.2% | % Signal Inhibition Rep1 [3]: -9.89% | % Signal Inhibition Rep2 [3]: -4.12% | % Signal Inhibition Rep3 [3]: -37.6%
B1: PMX106 (antibody, V domains shown)
VH: EVQLVESGGDLVKPGGSLRLSCVASGFTFSSYHMSWVRQAPGKGLQWVAYINSGGSSTSYADAVKGRFTISRDNAKNTLYLQMNSLRAEDTAVYYCAGFIWTHFDYWGQGTLVTVSS
VL: DIVMTQTPPSLSVSPRETASISCKASQSLLHSDGNTYLDWYLQKPGQSPQLLIYLVSNRFTGVSDRFSGSGSGTDFTLRISRVEANDTGVYYCGQGTQLWTFGAGTKVELK

Kd [4]: 903 nM | GEO mean OX40L expressing HEK [5]: 1.39e+06 | % Signal Inhibition Average [6]: 67.1% | % Signal Inhibition Rep1 [6]: 67.6% | % Signal Inhibition Rep2 [6]: 65.1% | % Signal Inhibition Rep3 [6]: 68.7% | koff [7]: 0.00191 s⁻¹ | koff [8]: 0.00131 s⁻¹ | GEO mean difference [9]: 1.36e+06
B2: PMX026 (antibody, V domains shown)
VH: EVHLVESGGDLVKPGGSLRLSCVASGFTFSSYHMSWVRQAPGKGLQWVAFINAGEISTNYADAVKGRFTISRDNAKNILYLQMNSLRAEDTAVYYCASGHIWIRPFDYWGQGTLVTVSS
VL: SYVLTQLPSMSVTLRQTARITCEGDSIGRKRVNWYQQKLGQVPVLIIYDDDSRPSGIPERFSGANSGNTATLTISGALAEDEAEYYCQVWDSSNNWVFGEGTQLTVL
notes: also called PMX26

Kd [4]: 14.4 nM | GEO mean OX40L expressing HEK [5]: 595000 | % Signal Inhibition Average [6]: 78.6% | % Signal Inhibition Rep1 [6]: 94% | % Signal Inhibition Rep2 [6]: 88.7% | % Signal Inhibition Rep3 [6]: 53% | koff [7]: 0.00155 s⁻¹ | koff [8]: 2.69 s⁻¹ | GEO mean difference [9]: 591000
B8: PMX294 (antibody, V domains shown)
VH: EVQLVESGGDLVKPEGSLRLSCAVSGFTFSSNDMSWVRQAPGKGLQWVAYITYDGRSTSYTDIVKGRFTVSRDNAKNTLYLQMNSLRSEDAAVYYCAKAQRGWFFDYWGQGTLVTVSS
VL: B6 VL with R28G, K37Q, S51D, F61I, S95G

Kd [4]: 1.26 nM | GEO mean OX40L expressing HEK [5]: 1.18e+06 | % Signal Inhibition Average [6]: 77.1% | % Signal Inhibition Rep1 [6]: 75.4% | % Signal Inhibition Rep2 [6]: 84.2% | % Signal Inhibition Rep3 [6]: 71.8% | koff [7]: 0.000748 s⁻¹ | koff [8]: 0.436 s⁻¹ | GEO mean difference [9]: 1.15e+06
B10: PMX040 (antibody, V domains shown)
VH: B9 VH with K53E, S56T, S61A, R63G, S74N, A75V, T76K, F80Y, T102S, G103S
VL: B6 VL with R28G, S29R, Y33C, Y35F, K37Q, V44I, S95G, V96I
notes: also called PMX40

— patent US20250340659A1 (PETMEDIX, published 2025)
